Read-outs that look alike come from different tables or passages of the source.
Columns and labels:
SARS1 Spike [1] = assay: ELISA, antigen coated on the plate, OD 405 nm
SARS1 Spike [2] = assay: ELISA, antigen coated on the plate, OD 405 nm; remark: listed apart in the source

B1: S110 (antibody, V domains shown)
VH: QVQLVESGGGLVQAGGSLRLSCAASGRTFSSAGMAWFRQAPGKEREFVATSNWNGGDTDYADSVKGRFTISRDNAKNTVYLQMNNLKPEDTAVYYCAAHLQKYGGDYYARIWGQGTQVTVS
EC50 (read off the curve) (SARS1 Spike [1]): ~0.03 µg/mL | EC50 (read off the curve) (SARS1 Spike [2]): ~0.03 µg/mL

Reference: patent publication US20230331821A1 (VIR BIOTECHNOLOGY, published 2023)
